Laboratory results as given in WO2011104307A2.

Target: host cell proteins
Assay: microtiter plate column chromatography, Bradford assay; fraction of injected protein bound

“rProtein A Sepharose FF (from UniProt P38507 37-327)” showed a Bound of 0%.
